This is an account of results in patent US20180162947A1 (UCB, published 2018).

The labels stand for the following.
B1: 969gH1gL2 (antibody, human IgG4 S228P, kappa, name in Kabat numbering, V domains shown)
VH: EVTLKESGPALVKPTQTLTLTCTFSGFSLTTYGMGVGWIRQPPGKALEWLANIWWDDDKYYNPSLKNRLTISKDTSKNQAVLTMTNMDPVDTATYYCARIGPIKYPTAPYRYFDFWGQGTMVTVSS
VL: DIQMTQSPSSLSASVGDRVTITCLASEDIYDNLAWYQQKPGKAPKLLIYYASSLQDGVPSRFSGSGSGTDYTLTISSLQPEDFATYFCLQDSEYPWTFGGGTKVEIKR
notes: Humanised IgG4 (S241P)/kappa; positions are Kabat
B2: 969gH2gL5 (antibody, human IgG4 S228P, kappa, name in Kabat numbering, V domains shown)
VH: EVTLKESGPALVKPTQTLTLTCTFSGFSLTTYGMGVGWIRQPPGKALEWLANIWWDDDKYYNPSLKNRLTISKDTSKNQVVLTMTNMDPVDTATYYCARIGPIKYPTAPYRYFDFWGQGTMVTVSS
VL: DIQMTQSPSSLSASVGDRVTITCLASEDIYDNLAWYQQKPGKAPKLLIYYASSLQDGVPSRFSGSGSGTDFTLTISSLQPEDFATYFCLQDSEYPWTFGGGTKVEIKR
notes: as for B1
B3: 969gH2gL2 (antibody, human IgG4 S228P, kappa, name in Kabat numbering, V domains shown)
VH: EVTLKESGPALVKPTQTLTLTCTFSGFSLTTYGMGVGWIRQPPGKALEWLANIWWDDDKYYNPSLKNRLTISKDTSKNQVVLTMTNMDPVDTATYYCARIGPIKYPTAPYRYFDFWGQGTMVTVSS
VL: DIQMTQSPSSLSASVGDRVTITCLASEDIYDNLAWYQQKPGKAPKLLIYYASSLQDGVPSRFSGSGSGTDYTLTISSLQPEDFATYFCLQDSEYPWTFGGGTKVEIKR
notes: as for B1
B4: 969gH1gL8 (antibody, human IgG4 S228P, kappa, name in Kabat numbering, V domains shown)
VH: EVTLKESGPALVKPTQTLTLTCTFSGFSLTTYGMGVGWIRQPPGKALEWLANIWWDDDKYYNPSLKNRLTISKDTSKNQAVLTMTNMDPVDTATYYCARIGPIKYPTAPYRYFDFWGQGTMVTVSS
VL: DIQMTQSPSSLSASVGDRVTITCLASEDIYDNLAWYQQKPGKAPKLLIYYASSLQDGVPSRFSGSGSGTDFTLTISSLQPEDFATYYCLQDSEYPWTFGGGTKVEIKR
notes: as for B1
B5: 969gH2gL3 (antibody, human IgG4 S228P, kappa, name in Kabat numbering, V domains shown)
VH: EVTLKESGPALVKPTQTLTLTCTFSGFSLTTYGMGVGWIRQPPGKALEWLANIWWDDDKYYNPSLKNRLTISKDTSKNQVVLTMTNMDPVDTATYYCARIGPIKYPTAPYRYFDFWGQGTMVTVSS
VL: DIQMTQSPSSLSASVGDRVTITCLASEDIYDNLAWYQKKPGKAPKLLIYYASSLQDGVPSRFSGSGSGTDFTLTISSLQPEDFATYFCLQDSEYPWTFGGGTKVEIKR
notes: as for B1
B6: 969gH1gL4 (antibody, human IgG4 S228P, kappa, name in Kabat numbering, V domains shown)
VH: EVTLKESGPALVKPTQTLTLTCTFSGFSLTTYGMGVGWIRQPPGKALEWLANIWWDDDKYYNPSLKNRLTISKDTSKNQAVLTMTNMDPVDTATYYCARIGPIKYPTAPYRYFDFWGQGTMVTVSS
VL: DIQMTQSPSSLSASVGDRVTITCLASEDIYDNLAWYQKKPGKAPKLLIYYASSLQDGVPSRFSGSGSGTDYTLTISSLQPEDFATYYCLQDSEYPWTFGGGTKVEIKR
notes: as for B1
B7: 969gH1gL3 (antibody, human IgG4 S228P, kappa, name in Kabat numbering, V domains shown)
VH: EVTLKESGPALVKPTQTLTLTCTFSGFSLTTYGMGVGWIRQPPGKALEWLANIWWDDDKYYNPSLKNRLTISKDTSKNQAVLTMTNMDPVDTATYYCARIGPIKYPTAPYRYFDFWGQGTMVTVSS
VL: DIQMTQSPSSLSASVGDRVTITCLASEDIYDNLAWYQKKPGKAPKLLIYYASSLQDGVPSRFSGSGSGTDFTLTISSLQPEDFATYFCLQDSEYPWTFGGGTKVEIKR
notes: as for B1
B8: 969gH1gL6 (antibody, human IgG4 S228P, kappa, name in Kabat numbering, V domains shown)
VH: EVTLKESGPALVKPTQTLTLTCTFSGFSLTTYGMGVGWIRQPPGKALEWLANIWWDDDKYYNPSLKNRLTISKDTSKNQAVLTMTNMDPVDTATYYCARIGPIKYPTAPYRYFDFWGQGTMVTVSS
VL: DIQMTQSPSSLSASVGDRVTITCLASEDIYDNLAWYQKKPGKAPKLLIYYASSLQDGVPSRFSGSGSGTDFTLTISSLQPEDFATYYCLQDSEYPWTFGGGTKVEIKR
notes: as for B1
B9: 969gH2gL6 (antibody, human IgG4 S228P, kappa, name in Kabat numbering, V domains shown)
VH: EVTLKESGPALVKPTQTLTLTCTFSGFSLTTYGMGVGWIRQPPGKALEWLANIWWDDDKYYNPSLKNRLTISKDTSKNQVVLTMTNMDPVDTATYYCARIGPIKYPTAPYRYFDFWGQGTMVTVSS
VL: DIQMTQSPSSLSASVGDRVTITCLASEDIYDNLAWYQKKPGKAPKLLIYYASSLQDGVPSRFSGSGSGTDFTLTISSLQPEDFATYYCLQDSEYPWTFGGGTKVEIKR
notes: Humanised IgG4 (S241P)/kappa; positions are Kabat; also called Ab969.g9
B10: 969gH1gL7 (antibody, human IgG4 S228P, kappa, name in Kabat numbering, V domains shown)
VH: EVTLKESGPALVKPTQTLTLTCTFSGFSLTTYGMGVGWIRQPPGKALEWLANIWWDDDKYYNPSLKNRLTISKDTSKNQAVLTMTNMDPVDTATYYCARIGPIKYPTAPYRYFDFWGQGTMVTVSS
VL: DIQMTQSPSSLSASVGDRVTITCLASEDIYDNLAWYQQKPGKAPKLLIYYASSLQDGVPSRFSGSGSGTDYTLTISSLQPEDFATYYCLQDSEYPWTFGGGTKVEIKR
notes: Humanised IgG4 (S241P)/kappa; position is Kabat
B11: 969gH1gL5 (antibody, human IgG4 S228P, kappa, name in Kabat numbering, V domains shown)
VH: EVTLKESGPALVKPTQTLTLTCTFSGFSLTTYGMGVGWIRQPPGKALEWLANIWWDDDKYYNPSLKNRLTISKDTSKNQAVLTMTNMDPVDTATYYCARIGPIKYPTAPYRYFDFWGQGTMVTVSS
VL: DIQMTQSPSSLSASVGDRVTITCLASEDIYDNLAWYQQKPGKAPKLLIYYASSLQDGVPSRFSGSGSGTDFTLTISSLQPEDFATYFCLQDSEYPWTFGGGTKVEIKR
notes: as for B1

T1 sequence (P07333 20-512 limits assumed): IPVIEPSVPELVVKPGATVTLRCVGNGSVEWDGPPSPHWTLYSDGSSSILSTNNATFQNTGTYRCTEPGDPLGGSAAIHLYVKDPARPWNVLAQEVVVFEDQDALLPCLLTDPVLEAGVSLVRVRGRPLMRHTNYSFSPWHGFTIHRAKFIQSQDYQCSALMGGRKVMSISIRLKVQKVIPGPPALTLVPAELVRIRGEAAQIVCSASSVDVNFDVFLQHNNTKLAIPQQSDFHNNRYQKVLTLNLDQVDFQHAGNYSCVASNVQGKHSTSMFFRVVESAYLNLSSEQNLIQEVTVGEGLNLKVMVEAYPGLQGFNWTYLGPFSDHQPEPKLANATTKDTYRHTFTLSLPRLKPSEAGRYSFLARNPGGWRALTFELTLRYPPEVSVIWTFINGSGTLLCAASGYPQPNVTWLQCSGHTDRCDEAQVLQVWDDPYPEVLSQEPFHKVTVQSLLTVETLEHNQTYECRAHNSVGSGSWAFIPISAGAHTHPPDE

The assay addresses T1, recombinant human CSF-1R (form not stated) (human, UniProt P07333 20-512, limits assumed).
T1 construct: for the ELISA no species is stated; also called recombinant CSF-1R; recombinant CSF-1R protein
Put plainly: BIAcore, humanisation stage, crude cell supernatant. (In SPR one partner is held on a chip, and binding of the other changes the refractive index at the surface.)
Usually Kd stands for the free concentration of one partner at which half of the binding sites on the other are occupied at equilibrium, for simple one-to-one binding. As usually defined, the koff is the first-order rate constant of dissociation. The kon is a measure of how fast the partners come together. For the molecule B1, the Kd worked out at 3.4 pM, the koff was found to be 5e-06 s⁻¹ and the kon worked out at 1.46e+06 M⁻¹ s⁻¹.

Regarding B2, the Kd was found to be 6.5 pM, the koff was found to be 5e-06 s⁻¹ and the kon is 768000 M⁻¹ s⁻¹.

As for B3, the Kd amounted to 3.4 pM, the koff is 6.11e-06 s⁻¹ and the kon worked out at 1.78e+06 M⁻¹ s⁻¹.

On to B4, for which the Kd is 4.3 pM, the koff is 5e-06 s⁻¹ and the kon was found to be 1.17e+06 M⁻¹ s⁻¹.

As to B5, the Kd came out at 3.4 pM, the koff is 7.29e-06 s⁻¹ and the kon was determined as 2.12e+06 M⁻¹ s⁻¹.

On to B6, for which the Kd amounted to 2.1 pM, the koff is 5e-06 s⁻¹ and the kon stood at 2.39e+06 M⁻¹ s⁻¹.

In the case of B7, the Kd was determined as 2.8 pM, the koff stood at 5e-06 s⁻¹ and the kon is 1.8e+06 M⁻¹ s⁻¹.

As for B8, the Kd stood at 4.4 pM, the koff was found to be 5e-06 s⁻¹ and the kon was 1.15e+06 M⁻¹ s⁻¹.

As to B9, the Kd turned out to be 4.4 pM, the koff was 6.23e-06 s⁻¹ and the kon came out at 1.4e+06 M⁻¹ s⁻¹.

With B10, the Kd is 3.3 pM, the koff worked out at 5e-06 s⁻¹ and the kon was determined as 1.5e+06 M⁻¹ s⁻¹.

Take B11: the Kd was found to be 6.6 pM, the koff came to 6.11e-06 s⁻¹ and the kon is 926000 M⁻¹ s⁻¹.
